Measured values reported in patent US20250382344A1, “Soluble GLP1/GIP/NPY2 Receptor Triple Agonists” (Boehringer Ingelheim International GmH, priority 2024, published 2025).
Like-named read-outs stand apart in the source and are kept apart here. *1 amine or outer side, *2 acyl side, *3 side chain or, on linkers, in order; H or OH if unused. Where no end group is shown, it is not given here. Side-chain parts run from the residue outwards. [ ]: non-standard residue; d: D form. The star is where a group is joined. C18 diacid = O=C(O)CCCCCCCCCCCCCCCCC(=O)*; γGlu = O=C(O)[C@H](CCC(=O)[*:2])N[*:1]; εLys = N[C@@H](CCCCN[*:1])C(=O)[*:2]; Aib = CC(C)(N)C(=O)O

Tests used:
hGLP1R = molecular target: T1, hGLP1R (Homo sapiens, UniProt P43220); assay: hGLP1R CreLuc assay in 0.5% and 100% plasma (HEK-293 CRE-luciferase reporter cells); assay type: cell-based; settings: HEK-293 reporter cells
T1 construct: expressed in transfected cells; host or cells: HEK-293 CRE-luciferase reporter cells

hGIPR = molecular target: T2, hGIPR (Homo sapiens, UniProt P48546); assay: hGIPR CreLuc assay in 0.5% and 100% plasma (CHO CRE-luciferase reporter cells); assay type: cell-based
T2 construct: expressed in transfected cells; host or cells: CHO CRE-luciferase reporter cells
T2 sequence (P48546 22-466): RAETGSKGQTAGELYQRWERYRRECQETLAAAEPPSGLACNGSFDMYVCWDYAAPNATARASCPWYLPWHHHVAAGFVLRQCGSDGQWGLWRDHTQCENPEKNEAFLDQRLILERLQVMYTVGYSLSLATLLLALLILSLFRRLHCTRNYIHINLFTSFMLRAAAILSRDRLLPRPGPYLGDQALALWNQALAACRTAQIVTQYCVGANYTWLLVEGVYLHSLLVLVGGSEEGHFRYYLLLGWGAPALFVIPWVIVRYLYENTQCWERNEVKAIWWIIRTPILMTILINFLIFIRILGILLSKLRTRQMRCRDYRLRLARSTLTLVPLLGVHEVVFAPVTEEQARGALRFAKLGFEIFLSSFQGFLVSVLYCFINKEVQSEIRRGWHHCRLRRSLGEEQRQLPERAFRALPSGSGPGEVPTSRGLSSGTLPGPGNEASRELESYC

hNPY2R = molecular target: T3, hNPY2R (Homo sapiens, UniProt P49146); assay: hNPY2R CreLuc assay in 0.5% and 100% plasma (HEK-293 CRE-luciferase reporter cells); assay type: cell-based; settings: 0.5% human plasma, HEK-293 reporter cells, read-out: hNPY2R 0.5% hP
T3 construct: expressed in transfected cells; host or cells: HEK-293 CRE-luciferase reporter cells
T3 sequence (P49146 1-381): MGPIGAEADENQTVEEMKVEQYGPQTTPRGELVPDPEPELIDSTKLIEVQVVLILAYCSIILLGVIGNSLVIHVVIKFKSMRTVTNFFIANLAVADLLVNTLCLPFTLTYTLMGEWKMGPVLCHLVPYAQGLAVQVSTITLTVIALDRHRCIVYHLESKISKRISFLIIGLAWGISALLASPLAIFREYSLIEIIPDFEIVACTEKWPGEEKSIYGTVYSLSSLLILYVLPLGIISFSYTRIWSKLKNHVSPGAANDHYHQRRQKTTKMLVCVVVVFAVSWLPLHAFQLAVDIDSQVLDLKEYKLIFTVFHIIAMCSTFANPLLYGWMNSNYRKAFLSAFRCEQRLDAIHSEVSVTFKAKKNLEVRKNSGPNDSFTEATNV

[1] = Solubility in 0.1 M phosphate buffer at pH 7; assay type: physicochemical; settings: 0.1 M phosphate buffer at pH 7, 10 mg/mL final peptide concentration, shaking 2 hours at room temperature, peptides as TFA-salts; measured sample pH 6.5-7.0
[2] = Mouse PK after intravenous application; assay type: in vivo; settings: plasma, male NMRI mice, intravenous 30-60 nmol/kg, non-compartmental analysis
Procedure, shortened: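 Male NMRI mice (30–40 g) dosed 30-60 nmol/kg by tail vein in 50 mM phosphate buffer pH 7.4/3.5% mannitol. Saphenous EDTA blood sampled from conscious animals up to 56 h; plasma peptide quantified by LC-MS. Parameters from non-compartmental analysis of individual profiles.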

Normal NMRI Mice = assay: Effect on acute food intake in normal NMRI mice; assay type: in vivo; settings: male NMRI mice, single subcutaneous dose 100 nmol/kg, 24 hours food intake normalized to vehicle group
Procedure, shortened: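 Male NMRI mice (n=8, ≥6 weeks), food locked 8 h before dark phase, given a single subcutaneous dose of peptide 1 h before lights-off. Food intake logged hourly over 24 h by automated HM2 monitoring; vehicle 50 mM phosphate pH 7.4 with 3.5% mannitol.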

human GIP receptor = molecular target: T4, human GIP receptor (human, UniProt P48546 22-466); assay: cell-based or functional assay
T4 sequence (looked up): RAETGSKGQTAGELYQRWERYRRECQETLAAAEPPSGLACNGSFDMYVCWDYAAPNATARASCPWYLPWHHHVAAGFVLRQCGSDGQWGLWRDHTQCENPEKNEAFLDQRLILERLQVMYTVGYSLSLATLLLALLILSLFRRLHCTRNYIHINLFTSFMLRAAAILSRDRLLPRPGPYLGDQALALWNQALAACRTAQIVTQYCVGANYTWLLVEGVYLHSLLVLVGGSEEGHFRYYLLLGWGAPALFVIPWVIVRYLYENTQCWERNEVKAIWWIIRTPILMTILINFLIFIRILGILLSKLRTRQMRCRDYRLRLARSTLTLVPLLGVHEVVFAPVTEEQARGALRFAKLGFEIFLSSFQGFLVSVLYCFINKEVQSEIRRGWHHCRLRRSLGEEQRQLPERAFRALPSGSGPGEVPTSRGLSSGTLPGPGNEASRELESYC

[3] = molecular target: T5, human neuropeptide Y2 receptor (human, UniProt P49146 1-381); assay: cell-based or functional assay
T5 sequence (looked up): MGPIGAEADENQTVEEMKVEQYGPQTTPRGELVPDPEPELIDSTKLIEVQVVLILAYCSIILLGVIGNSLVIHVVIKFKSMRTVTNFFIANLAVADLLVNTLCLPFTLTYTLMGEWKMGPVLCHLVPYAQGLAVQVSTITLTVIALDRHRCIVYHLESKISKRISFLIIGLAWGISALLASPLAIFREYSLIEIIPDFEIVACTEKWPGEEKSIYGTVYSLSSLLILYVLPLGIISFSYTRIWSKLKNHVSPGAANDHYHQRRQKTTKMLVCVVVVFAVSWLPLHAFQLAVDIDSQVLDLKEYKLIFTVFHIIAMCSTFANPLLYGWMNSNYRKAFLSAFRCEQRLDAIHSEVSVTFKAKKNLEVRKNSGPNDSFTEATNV

human GLP-1 receptor = human GLP-1 receptor (human, UniProt P43220 24-463); assay: cell-based or functional assay
[4] = 100% human plasma, read-out: hGLP1R 100% hP

T1 sequence (P43220 24-463): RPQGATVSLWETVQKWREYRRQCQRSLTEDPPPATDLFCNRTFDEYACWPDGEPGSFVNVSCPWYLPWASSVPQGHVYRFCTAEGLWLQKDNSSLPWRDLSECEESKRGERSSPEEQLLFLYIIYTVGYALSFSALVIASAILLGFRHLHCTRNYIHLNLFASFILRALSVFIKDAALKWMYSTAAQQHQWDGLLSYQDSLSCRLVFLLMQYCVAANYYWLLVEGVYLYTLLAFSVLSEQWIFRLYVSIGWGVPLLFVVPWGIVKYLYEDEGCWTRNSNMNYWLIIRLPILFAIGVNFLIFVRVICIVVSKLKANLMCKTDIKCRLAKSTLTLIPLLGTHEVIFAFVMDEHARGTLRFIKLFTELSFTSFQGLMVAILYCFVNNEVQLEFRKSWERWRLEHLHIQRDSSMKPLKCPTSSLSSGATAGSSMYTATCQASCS

CC[C@H](C)[C@H](NC(=O)[C@H](Cc1ccccc1)NC(=O)[C@H](C)NC(=O)C(C)(C)NC(=O)[C@H](CCC(N)=O)NC(=O)[C@H](C)NC(=O)[C@H](CCC(N)=O)NC(=O)[C@H](CCCCN)NC(=O)[C@H](CCC(=O)O)NC(=O)[C@H](CC(C)C)NC(=O)[C@](C)(CC(C)C)NC(=O)[C@@H](NC(=O)[C@H](CO)NC(=O)[C@H](Cc1ccc(O)cc1)NC(=O)[C@H](CC(=O)O)NC(=O)[C@H](CO)NC(=O)[C@@H](NC(=O)[C@H](Cc1ccccc1)NC(=O)[C@@H](NC(=O)CNC(=O)[C@H](CCC(=O)O)NC(=O)C(C)(C)NC(=O)[C@@H](N)Cc1ccc(O)cc1)[C@@H](C)O)[C@@H](C)O)[C@@H](C)CC)C(=O)N[C@@H](CCCNC(=N)N)C(=O)N[C@@H](Cc1c[nH]cn1)C(=O)N[C@@H](CC(C)C)C(=O)N[C@H](C(=O)N[C@@H](CC(N)=O)C(=O)N[C@@H](CCCCNC(=O)[C@@H](N)CCCCNC(=O)CC[C@H](NC(=O)CC[C@H](NC(=O)CC[C@H](NC(=O)CC[C@H](NC(=O)CC[C@H](NC(=O)CC[C@H](NC(=O)CCCCCCCCCCCCCCCCC(=O)O)C(=O)O)C(=O)O)C(=O)O)C(=O)O)C(=O)O)C(=O)O)C(=O)NC(C)(C)C(=O)N[C@H](C(=O)N[C@@H](CCCNC(=N)N)C(=O)N[C@@H](CCC(N)=O)C(=O)N[C@@H](CCCNC(=N)N)C(=O)N[C@@H](Cc1ccc(O)cc1)C(N)=O)[C@@H](C)O)[C@@H](C)CC [Compound 76, Y-Aib-E-G-T-F-T-S-D-Y-S-I-aMeL-L-E-K-Q-A-Q-Aib-A-F-I-R-H-L-I-N-K(1,3)-Aib-T-R-Q-R-Y-NH2.C18DA-gGlu-gGlu-gGlu-gGlu-gGlu-gGlu-eLys(1,2)]
EC50 (hGLP1R; [4]): 0.3 nM
EC50 (hGIPR; 100% human plasma, read-out: hGIPR 100% hP): 0.5 nM
EC50 (hNPY2R): 7.2 nM
solubility at 2 h [1]: 8900 µg/mL
MRT [2]: 6.7 h
Acute Food Intake 24 hours 100 nmol/kg [% CTL] (Normal NMRI Mice): 55 % CTL

CC[C@H](C)[C@H](NC(=O)[C@H](CC(C)C)NC(=O)[C@H](Cc1c[nH]cn1)NC(=O)[C@H](CCCNC(=N)N)NC(=O)[C@@H](NC(=O)[C@H](Cc1ccccc1)NC(=O)[C@H](C)NC(=O)C(C)(C)NC(=O)[C@H](CCC(N)=O)NC(=O)[C@H](C)NC(=O)[C@H](CCC(N)=O)NC(=O)[C@H](CCCCN)NC(=O)[C@H](CCC(=O)O)NC(=O)[C@H](CC(C)C)NC(=O)C(C)(C)NC(=O)[C@@H](NC(=O)[C@H](CO)NC(=O)[C@H](Cc1ccc(O)cc1)NC(=O)[C@H](CC(=O)O)NC(=O)[C@H](CO)NC(=O)[C@@H](NC(=O)[C@H](Cc1ccccc1)NC(=O)[C@@H](NC(=O)CNC(=O)[C@H](CCC(=O)O)NC(=O)C(C)(C)NC(=O)[C@@H](N)Cc1ccc(O)cc1)[C@@H](C)O)[C@@H](C)O)[C@@H](C)CC)C(C)C)C(=O)N[C@@H](CC(N)=O)C(=O)N[C@@H](CCCCNC(=O)[C@@H](N)CCCCNC(=O)CC[C@H](NC(=O)CC[C@H](NC(=O)CC[C@H](NC(=O)CC[C@H](NC(=O)CC[C@H](NC(=O)CC[C@H](NC(=O)CCCCCCCCCCCCCCCCC(=O)O)C(=O)O)C(=O)O)C(=O)O)C(=O)O)C(=O)O)C(=O)O)C(=O)NC(C)(C)C(=O)N[C@H](C(=O)N[C@@H](CCCNC(=N)N)C(=O)N[C@@H](CCC(N)=O)C(=O)N[C@@H](CCCNC(=N)N)C(=O)N[C@@H](Cc1ccc(O)cc1)C(N)=O)[C@@H](C)O [Compound 92, Y-Aib-E-G-T-F-T-S-D-Y-S-I-Aib-L-E-K-Q-A-Q-Aib-A-F-V-R-H-L-I-N-K(1,3)-Aib-T-R-Q-R-Y-NH2.C18DA-gGlu-gGlu-gGlu-gGlu-gGlu-gGlu-eLys(1,2)]
EC50 (hGLP1R; 0.5% human plasma, read-out: hGLP1R 0.5% hP): 0.4 nM
EC50 (hGLP1R; [4]): 2 nM
EC50 (hGIPR; 0.5% human plasma, read-out: hGIPR 0.5% hP): 0.2 nM
EC50 (hNPY2R): 9.9 nM
solubility at 2 h [1]: 6700 µg/mL
MRT [2]: 7.5 h
Acute Food Intake 24 hours 100 nmol/kg [% CTL] (Normal NMRI Mice): 58 % CTL

B1: Compound 171 (peptide)
peptide: YXEGTFTSDYSIXLERQAQXAFVRHLINKXTRQRY
modifications: Aib at positions 2, 13, 20 and 30; Lys 29 epsilon-amino group carries C20DA-gGlu-gGlu-gGlu-gGlu-gGlu-gGlu-eLys; C-terminal amide
EC50, CreLuc luciferase reporter assay, hGIPR 0.5% hP (human GIP receptor): 0.4 nM
EC50, CreLuc luciferase reporter assay, hNPY2R 0.5% hP [3]: 9.9 nM
EC50, CreLuc luciferase reporter assay, hNPY2R 100% hP [3]: 95.3 nM

B2: Compound 173 (peptide)
peptide: YXEGTFTSDYSIXLDKQAQXAFVRHLLNKXTRQRY
modifications: Aib at positions 2, 13, 20 and 30; Lys 29 epsilon-amino group carries C18DA-gGlu-gGlu-gGlu-gGlu-gGlu-gGlu-eLys; C-terminal amide
EC50, CreLuc luciferase reporter assay, hGLP1R 0.5% hP (human GLP-1 receptor): 0.2 nM
EC50, CreLuc luciferase reporter assay, hGIPR 0.5% hP (human GIP receptor): 0.7 nM
EC50, CreLuc luciferase reporter assay, hGIPR 100% hP (human GIP receptor): 20.1 nM
EC50, CreLuc luciferase reporter assay, hNPY2R 0.5% hP [3]: 7.3 nM
EC50, CreLuc luciferase reporter assay, hNPY2R 100% hP [3]: 55.5 nM

B3: Compound 176 (peptide)
peptide: YXEGTFTSDYSIXLEKQAQXAFVRHLINKXTRQRY
modifications: Aib at positions 2, 13, 20 and 30; Lys 29 epsilon-amino group carries C20DA-gGlu-gGlu-gGlu-gGlu-gGlu; C-terminal amide
EC50, CreLuc luciferase reporter assay, hNPY2R 100% hP [3]: 457 nM

B4: Compound 172 (peptide)
peptide: YXEGTFTSDYSIXLEKQAQXAFVRHLINKWTRQRY
modifications: Aib at positions 2, 13 and 20; Lys 29 epsilon-amino group carries C18DA-gGlu-gGlu-gGlu-gGlu-gGlu-gGlu-eLys; C-terminal amide
EC50, CreLuc luciferase reporter assay, hGIPR 0.5% hP (human GIP receptor): 1.7 nM
EC50, CreLuc luciferase reporter assay, hGIPR 100% hP (human GIP receptor): 19.8 nM
EC50, CreLuc luciferase reporter assay, hNPY2R 0.5% hP [3]: 52.7 nM
EC50, CreLuc luciferase reporter assay, hNPY2R 100% hP [3]: 136 nM

Y[Aib]EGTFTSDYSI[Aib]LEKQAQ[Aib]AFVRHLINK([γGlu-εLys-γGlu-γGlu-γGlu-γGlu-γGlu-C18 diacid])[Aib]TRQRY-NH2 (also: TFA salt) [Compound 174]
EC50, CreLuc luciferase reporter assay, hGLP1R 0.5% hP (human GLP-1 receptor): 1 nM
